Assay results reported in PMC11480844.

B1: H2-Kb / E4 (parent)
chain 1: AQSVTQPDARVTVSEGASLQLRCKYSYSGTPYLFWYVQYPRQGLQLLLKYYSGDPVVQGVNGFEAEFIKSNSSFHLRKASVHWSDSAVYFCAVSAGQGGSAKLIFGEGTKLTVSS
chain 2: GGIITQTPKFLIGQEGQKLTLKCQQNFNHDTMYWYRQDSGKGLRLIYYSITENDLQKGDLSEGYDASREKKSSFSLTVTSAQKNEMAVFLCASSIWGDSYEQYFGPGTRLTVL
chain 3: not shown
chain 4: IQKTPQIQVYSRHPPENGKPNILNCYVTQFHPPHIEIQMLKNGKKIPKVEMSDMSFSKDWSFYILAHTEFTPTETDTYACRVKHDSMAEPKTVYWDRDM
chain 5: SIINFEKL
B2: H2-Kb / B7 (parent)
chain 1: GQQVQQSPTSLVLQEGENAELQCNFSTSLNSMQWFYQRPGGSLVSVFYNPSGTKQSGRLTSTTVIKERRSSLHISSSQITDSGTYLCAMERDMGYKLTFGTGTSLLVDP
chain 2: EAAVTQSPRNKVAVTGGKVTLSCNQTNNHNNMYWYRQDTGHGLRLIHYSYGAGSTEKGDIPDGYKASRPSQENFSLILELATPSQTSVYFCASGDPGDQDTQYFGPGTRLLVL
chain 3: not shown
chain 4: B1 chain 4
chain 5: SIINFEKL
B3: H2-Kb / G6 (parent)
chain 1: AQSVTQPDARVTVSEGASLQLRCKYSYFGTPYLFWYVQYPRQGLQLLLKYYPGDPVVQGVNGFEAEFSKSNSSFHLRKASVHWSDWAVYFCAVTPGGSNAKLTFGKGTKLSVKS
chain 2: NSGVVQSPRYIIKGKGERSILKCIPISGHLSVAWYQQTQGQELKFFIQHYDKMERDKGNLPSRFSVQQFDDYHSEMNMSALELEDSAVYFCASSRQGGDNNQAPLFGEGTRLSVL
chain 3: not shown
chain 4: B1 chain 4
chain 5: SIINFEKL

Variants of: B1
Assay: % of reporter cells activated (NFAT-GFP), raw
Details: with E4
Also: test concentration or dose not given here.

Ratio to parent of substitutions, site by site:
chain 5 K7: P 0.508 | A 0.413
chain 5 F5: R 0.508 | E 0.429 | G 0.46 | T 0.841 | A 1.1
chain 5 N4: D 0.794 | E 0.603 | W 0.286
chain 5 I3: W 0.762 | T 0.571 | S 0.762 | P 0.206
chain 5 L8: H 0.825 | A 0.286 | I 0.286 | K 0.635
chain 5 E6: D 1.05 | W 0.635 | H 1.21 | P 0.46 | V 1.05
chain 5 I2: L 1.1 | D 0.762 | F 0.746 | T 0.968
chain 5 S1: M 0.857 | E 0.698 | V 0.889

Variants of: B2
Assay: % of reporter cells activated (NFAT-GFP), raw
Details: with B7; scale: % of reporter cells activated

Ratio to parent, by site and new letter:
chain 5 F5: A 1.62 | I 0.938 | Y 1.2 | V 0.615 | P 1.74 | R 0.923 | D 1.55 | H 1.34 | Q 1.25 | E 1.49 | M 1.68 | N 1.31 | S 0.831 | W 1.55 | L 1.46 | T 1.05 | K 1.74 | G 1.03 | C 1.97
chain 5 S1: E 1.29 | A 1.63 | D 1.55 | N 0.862 | T 1.62 | P 1.74 | Q 2.08 | K 1.4 | Y 1.37 | C 1.8 | V 1.8 | I 0.969 | M 1.42 | H 1.45 | W 1.77 | R 1 | L 1.03 | G 1.57 | F 0.831
chain 5 E6: T 1.63 | W 1.09 | Q 0.754 | F 1.52 | Y 0.969 | I 1.14 | L 1 | P 1.25 | G 1.45 | C 1.46 | D 1.43 | R 1.46 | H 1.65 | K 1.32 | A 1.17 | N 1.2 | S 1.38 | M 0.985 | V 1.02
chain 5 I2: C 1.11 | N 2.11 | E 1.35 | F 1.05 | L 1.62 | G 1.85 | Y 1.48 | R 0.846 | W 1.46 | V 1.43 | Q 1.25 | S 1.45 | A 1.58 | H 1.83 | P 1.72 | D 1.45 | T 1.85 | M 1.65 | K 1.51
chain 5 I3: Q 1.65 | F 1.02 | H 1.68 | K 1.75 | G 1.86 | M 1.29 | S 0.646 | L 1.4 | A 1.68 | W 1.48 | Y 1.2 | C 1.58 | R 0.862 | V 1.17 | N 1.62 | D 1.11 | E 1.32 | T 1.48 | P 1.45
chain 5 L8: S 0.6 | H 1.23 | P 1.11 | C 1.4 | V 0.585 | D 0.615 | N 1 | E 0.326 | I 0.831 | K 0.785 | W 0.585 | R 1.69 | F 0.677 | A 0.862 | Q 0.938 | Y 0.769 | G 1.42 | M 0.892 | T 0.646
chain 5 N4: M 1.38 | L 1.82 | D 1.69 | P 0.877 | V 0.985 | Q 1.08 | Y 1.03 | W 1.28 | F 1.26 | E 1.35 | A 1.31 | K 1.45 | H 1.49 | S 1.11 | G 1.15 | R 1 | C 0.908 | I 1.43 | T 1.12
chain 5 K7: N 0.954 | W 0.769 | G 0.738 | S 1.18 | V 1.17 | L 1.32 | M 0.908 | A 1.17 | H 1.66 | Q 0.815 | C 1.05 | R 0.358 | T 1.02 | F 0.846 | D 1.02 | Y 1.18 | I 1.25 | P 1.48 | E 1.14

Variants of: B3
Assay: % of reporter cells activated (NFAT-GFP), raw
Details: with G6; scale: % of reporter cells activated

Ratio to parent: each site, then its substitutions
chain 5 I2: F 0.226 | D 0.412 | T 0.305 | M 0.214 | E 0.453 | Q 0.255 | K 0.551 | P 0.329 | Y 0.284 | W 0.185 | R 0.16 | N 0.321 | S 0.115 | C 0.239 | G 0.288 | L 0.247 | V 0.292 | H 0.259 | A 0.305
chain 5 E6: P 0.189 | M 0.551 | K 0.226 | F 0.914 | H 0.494 | A 0.724 | Q 0.292 | I 0.321 | R 0.259 | T 0.362 | G 0.506 | W 7.22 | N 0.63 | Y 0.778 | D 2.75 | L 0.193 | V 0.222 | S 0.428 | C 0.21
chain 5 I3: K 0.276 | A 0.333 | E 0.395 | R 0.109 | S 0.181 | C 0.292 | P 0.206 | W 0.276 | D 0.239 | V 1.18 | T 0.284 | Q 0.193 | G 0.226 | Y 0.272 | H 0.288 | N 0.181 | F 0.523 | M 0.465 | L 0.926
chain 5 F5: Q 2.04 | E 0.424 | N 0.3 | K 0.284 | S 0.362 | R 0.247 | A 0.383 | V 0.116 | M 1.34 | L 0.959 | H 0.395 | I 0.263 | T 0.177 | P 0.272 | D 0.313 | W 0.263 | Y 0.576 | C 0.609 | G 0.198
chain 5 S1: N 0.239 | Q 0.42 | Y 0.156 | V 1.09 | R 1.64 | A 0.65 | L 3.02 | E 0.239 | H 0.218 | M 0.284 | F 0.449 | T 0.222 | D 0.395 | P 1.48 | I 0.909 | C 0.502 | K 2.47 | W 0.362 | G 0.235
chain 5 K7: S 0.963 | H 0.292 | P 0.346 | I 0.358 | T 0.16 | A 1.4 | R 14.4 | C 0.272 | W 0.963 | F 0.189 | M 0.379 | N 0.412 | Q 0.267 | V 0.235 | E 0.276 | G 6.68 | D 0.202 | L 0.259 | Y 0.235
chain 5 N4: W 0.148 | A 0.251 | M 0.173 | E 0.177 | L 0.284 | H 0.276 | D 0.267 | F 0.202 | I 0.272 | C 0.177 | K 0.42 | P 0.198 | G 0.239 | Y 0.14 | R 0.255 | Q 0.128 | V 0.193 | S 0.193 | T 0.235
chain 5 L8: N 0.148 | H 7.85 | Q 0.165 | C 0.251 | I 0.819 | K 0.292 | G 0.457 | E 0.173 | D 0.152 | P 0.206 | W 1.92 | A 0.206 | F 0.218 | M 0.267 | R 0.617 | T 0.354 | Y 2.09 | V 0.56 | S 0.086
